Data set [1] deals with WT/WT nucleosome (Xenopus laevis histone octamer with intact acidic patches on Widom 601 DNA) (Xenopus laevis). The data set can be described thus: cryo-EM structure; biotinylated ALC1 linker peptide at 10-fold molar excess over core nucleosomes (no linker DNA), cross-linked with 0.05% glutaraldehyde, purified on monomeric avidin; 15 mM HEPES pH 7.5, 50 mM NaCl, 1 mM DTT.
Data set [2] has the same target.
For data set [3] the target is unchanged. This is another data set of the same source.
For data set [4], the system named is T1, ALC1RLS peptide-TAMRA (Homo sapiens).
T1 sequence: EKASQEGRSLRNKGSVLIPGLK
The data set can be described thus: fluorescence anisotropy. The note with it: Fluorescence anisotropy: 15 mM HEPES pH 7.5, 1 mM EDTA, 5% glycerol, 1 mM DTT, 10 nM peptide, 30 C.

Data set [5] addresses ALC1^RLS peptide-TAMRA (human). The data set can be described thus: fluorescence polarisation; fluorescence anisotropy; 10 nM TAMRA-labelled peptide, nucleosomes without linker DNA titrated; 30°C; 15 mM HEPES pH 7.5, 1 mM EDTA, 5% glycerol, 1 mM DTT; quadratic fit.

Some results are limits rather than exact numbers.

In the case of ALC1 linker peptide-Biotin, the stoichiometry N (peptides per nucleosome) in data set [1] came out at 2.
On to “ALC1^fl R611A/S612A/R860W (human ALC1 16-879) (from UniProt Q86WJ1 16-879) (enzyme)”, for which the smFRET, average translocation pause duration on WT/WT nucleosomes with 3 bp of linker DNA; fold increase against ALC1^fl R860W in data set [2] was over 4 fold. In addition, in data set [3], the Michaelis constant of remodeling of WT/WT nucleosomes (10 nM); factor of increase against ALC1^fl R860W was 5.3 fold; the maximum rate of remodeling of WT/WT nucleosomes (10 nM); factor of decrease against ALC1^fl R860W was 6.4 fold; the nucleosome-stimulated ATPase rate under saturating conditions (Vmax estimated); fold reduction against ALC1^fl R860W was 2 fold; the nucleosome-stimulated ATPase rate, 20 μM remodeler, 2 μM WT/WT nucleosomes; fold reduction against ALC1^fl R860W amounted to 2.5 fold.
For the substance WT/WT nucleosome 0-601-0, the Kd in data set [4] is 1100 nM.
“WT/WT nucleosome (Xenopus laevis histone octamer with intact acidic patches on Widom 601 DNA) (complex)” had a Kd in data set [5] of 1100 nM.

(Values after article PMC7116876, “Mechanistic Insights into Regulation of the ALC1 Remodeler by the Nucleosome Acidic Patch” (Cell reports, 2020).)
